Experimental data reported in WO2017055393A1.

What was measured:
[1] = molecular target: human Tim-3 (T cell Immunoglobulin- and Mucin domain-containing molecule 3) (human) (UniProt Q8TDQ0); experiment: FACS, 10 ug/ml PE-labeled antibody on SR cells; geom. mean MFI sample / isotype control
[2] = molecular target: human Tim-3 (T cell Immunoglobulin- and Mucin domain-containing molecule 3) (human) (UniProt Q8TDQ0); experiment: FACS, 10 ug/ml PE-labeled antibody on CMK cells; geom. mean MFI sample / isotype control
[3] = molecular target: human Tim-3 (T cell Immunoglobulin- and Mucin domain-containing molecule 3) (human) (UniProt Q8TDQ0); experiment: FACS, 10 ug/ml PE-labeled antibody on KG-1 cells; geom. mean MFI sample / isotype control
[4] = molecular target: human Tim-3 (T cell Immunoglobulin- and Mucin domain-containing molecule 3) (human) (UniProt Q8TDQ0); experiment: FACS, 10 ug/ml PE-labeled antibody on TF-1 cells; geom. mean MFI sample / isotype control
[5] = molecular target: human Tim-3 (T cell Immunoglobulin- and Mucin domain-containing molecule 3) (human) (UniProt Q8TDQ0); experiment: FACS, 10 ug/ml PE-labeled antibody on SR cells; geom. mean MFI sample minus isotype control
[6] = molecular target: human Tim-3 (T cell Immunoglobulin- and Mucin domain-containing molecule 3) (human) (UniProt Q8TDQ0); experiment: FACS, 10 ug/ml PE-labeled antibody on CMK cells; geom. mean MFI sample minus isotype control
[7] = molecular target: human Tim-3 (T cell Immunoglobulin- and Mucin domain-containing molecule 3) (human) (UniProt Q8TDQ0); experiment: FACS, 10 ug/ml PE-labeled antibody on Pfeiffer cells; geom. mean MFI sample / isotype control
[8] = molecular target: human Tim-3 (T cell Immunoglobulin- and Mucin domain-containing molecule 3) (human) (UniProt Q8TDQ0); experiment: FACS, 10 ug/ml PE-labeled antibody on KG-1 cells; geom. mean MFI sample minus isotype control
[9] = molecular target: human Tim-3 (T cell Immunoglobulin- and Mucin domain-containing molecule 3) (human) (UniProt Q8TDQ0); experiment: FACS, 10 ug/ml PE-labeled antibody on Kasumi-1 cells; geom. mean MFI sample / isotype control
[10] = molecular target: human Tim-3 (T cell Immunoglobulin- and Mucin domain-containing molecule 3) (human) (UniProt Q8TDQ0); experiment: FACS, 10 ug/ml PE-labeled antibody on TF-1 cells; geom. mean MFI sample minus isotype control
[11] = molecular target: human Tim-3 (T cell Immunoglobulin- and Mucin domain-containing molecule 3) (human) (UniProt Q8TDQ0); experiment: FACS, 10 ug/ml PE-labeled antibody on RPMI-8226 cells; geom. mean MFI sample / isotype control
[12] = molecular target: human Tim-3 (T cell Immunoglobulin- and Mucin domain-containing molecule 3) (human) (UniProt Q8TDQ0); experiment: FACS, 10 ug/ml PE-labeled antibody on Karpas-299 cells; geom. mean MFI sample / isotype control
[13] = molecular target: human Tim-3 (T cell Immunoglobulin- and Mucin domain-containing molecule 3) (human) (UniProt Q8TDQ0); experiment: FACS, 10 ug/ml PE-labeled antibody on Pfeiffer cells; geom. mean MFI sample minus isotype control
[14] = molecular target: human Tim-3 (T cell Immunoglobulin- and Mucin domain-containing molecule 3) (human) (UniProt Q8TDQ0); experiment: FACS, 10 ug/ml PE-labeled antibody on Kasumi-1 cells; geom. mean MFI sample minus isotype control
[15] = molecular target: human Tim-3 (T cell Immunoglobulin- and Mucin domain-containing molecule 3) (human) (UniProt Q8TDQ0); experiment: FACS, 10 ug/ml PE-labeled antibody on RPMI-8226 cells; geom. mean MFI sample minus isotype control
[16] = molecular target: human Tim-3 (T cell Immunoglobulin- and Mucin domain-containing molecule 3) (human) (UniProt Q8TDQ0); experiment: FACS, 10 ug/ml PE-labeled antibody on Karpas-299 cells; geom. mean MFI sample minus isotype control
[17] = molecular target: human Tim-3 (T cell Immunoglobulin- and Mucin domain-containing molecule 3) (human) (UniProt Q8TDQ0); experiment: FACS, 10 ug/ml PE-labeled antibody on EOL-1 cells (24h pre-treated with 10 ng/ml PMA); geom. mean MFI sample / isotype control
[18] = molecular target: human Tim-3 (T cell Immunoglobulin- and Mucin domain-containing molecule 3) (human) (UniProt Q8TDQ0); experiment: FACS, 10 ug/ml PE-labeled antibody on EOL-1 cells (24h pre-treated with 10 ng/ml PMA); geom. mean MFI sample minus isotype control

human Tim-3 (T cell Immunoglobulin- and Mucin domain-containing molecule 3) (human), sequence (Q8TDQ0 22-301): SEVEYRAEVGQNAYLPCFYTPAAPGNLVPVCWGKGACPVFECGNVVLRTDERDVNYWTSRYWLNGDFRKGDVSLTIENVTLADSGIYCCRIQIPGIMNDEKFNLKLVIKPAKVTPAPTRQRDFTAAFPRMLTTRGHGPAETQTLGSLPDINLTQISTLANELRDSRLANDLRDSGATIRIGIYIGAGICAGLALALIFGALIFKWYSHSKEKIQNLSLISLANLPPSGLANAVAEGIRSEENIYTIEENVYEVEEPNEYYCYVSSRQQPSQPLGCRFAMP

PE labeled anti-TIM3 (clone 344823, R&D) (antibody)
RFI (ratio of specific binding) [1]: 19 RFI
RFI (ratio of specific binding) [2]: 5 RFI
RFI (ratio of specific binding) [3]: 5 RFI
RFI (ratio of specific binding) [4]: 3 RFI
MFI (specific binding) [5]: 1050 MFI
MFI (specific binding) [6]: 384 MFI
RFI (ratio of specific binding) [7]: 51 RFI
MFI (specific binding) [8]: 363 MFI
RFI (ratio of specific binding) [9]: 4 RFI
MFI (specific binding) [10]: 229 MFI
RFI (ratio of specific binding) [11]: 23 RFI
RFI (ratio of specific binding) [12]: 3 RFI
MFI (specific binding) [13]: 3610 MFI
MFI (specific binding) [14]: 164 MFI
MFI (specific binding) [15]: 1790 MFI
MFI (specific binding) [16]: 247 MFI
RFI (ratio of specific binding) [17]: 2 RFI
MFI (specific binding) [18]: 207 MFI
